The values below come from patent publication US20140221622A1 (AbbVie / Abbott, published 2014).

Like-named read-outs stand apart in the source and are kept apart here.

Test [1] has as its target T1, CD40 on CD40-overexpressing HEK 293 cells (UniProt P25942 21-277, limits assumed).
T1 construct: whole, on cells
In words: flow cytometry on CD40-overexpressing HEK 293 cells, APC anti-human Fc. On the technique in general: A flow cytometer gives signals particle by particle.
Procedure: First, the CD40-overexpressing HEK 293 cells were stained with hIgG1 or testing material at a range of 0.01 μg/ml to 10 μg/ml. Followed by 30 min incubation on ice with an APC-conjugated anti-human Fc antibody. Cells then are washed twice and resuspended in PBS/FBS. Fluorescence was measured using a Becton Dickinson FACSCalibur (Becton Dickinson, San Jose, Calif.).
The binding of proteins were examined by FACS.

Test [2] has as its target T1, CD40 on CD40-overexpressing HEK 293 …. The experiment in a line: cell-based or functional assay.
The target is the same in test [3]. In words: flow cytometry on CD40-overexpressing HEK 293 cells, APC anti-human Fc. The source holds these as a separate data set.
Procedure: Followed by 30 min incubation on ice with an APC-conjugated anti-human Fc antibody. Cells then are washed twice and resuspended in PBS/FBS. Fluorescence was measured using a Becton Dickinson FACSCalibur (Becton Dickinson, San Jose, Calif.).

One may read the EC50 as the midpoint of the concentration-response curve.

T1 sequence (P25942 21-277 limits assumed): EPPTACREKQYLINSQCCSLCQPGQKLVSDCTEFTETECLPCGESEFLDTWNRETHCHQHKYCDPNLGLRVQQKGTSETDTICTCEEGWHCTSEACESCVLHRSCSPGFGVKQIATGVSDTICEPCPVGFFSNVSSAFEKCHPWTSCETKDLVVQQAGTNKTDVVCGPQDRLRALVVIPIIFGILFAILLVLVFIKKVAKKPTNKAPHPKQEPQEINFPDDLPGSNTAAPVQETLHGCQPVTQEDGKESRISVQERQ

B1: Anti-CD40 Ig (21.4.1 variable domains on human Cg1/Ck) (antibody, human IgG1, kappa)
heavy: not shown
light: DIQMTQSPSSVSASVGDRVTITCRASQGIYSWLAWYQQKPGKAPNLLIYTASTLQSGVPSRFSGSGSGTDFTLTISSLQPEDFATYYCQQANIFPLTFGGGTKVEIKRTVAAPSVFIFPPSDEQLKSGTASVVCLLNNFYPREAKVQWKVDNALQSGNSQESVTEQDSKDSTYSLSSTLTLSKADYEKHKVYACEVTHQGLSSPVTKSFNRGEC
For the molecule B1, the concentration for a half-maximal effect (EC50) in test [1] came to 0.084 µg/mL; in test [3] it was 0.24 µg/mL. In addition, the “agonist activity, NFkB-SEAP reporter in HEK 293 cells, EC50” value in test [2] was determined as 0.12 µg/mL.
